Data from paper PMC9675693, “Production and characterisation of modularly deuterated UBE2D1–Ub conjugate by small angle neutron and X-ray scattering” (European Biophysics Journal, 2022).

Molecular target: the molecule itself
Test: SDS-PAGE; purified hE2 on an SDS-PAGE gel; additional band of ~25 kDa

B1: human Ubiquitin-conjugating enzyme UBE2D1 with point mutations S22R, C85K and D87S, hydrogenated (enzyme)
chain: not shown
notes: Ubiquitin-conjugating enzyme UBE2D1, human, with S22R, C85K and D87S; In the SAS experiment (a1) K85 of this chain is joined by an isopeptide bond to G76 of dUb; also called hE2; not shown: His6, N-terminal, cleaved
B1: binds.
